Legend:
[1] = target: TycB1(S5Bpa)-His6, TycB1[COM^A-C-A-PCP] with p-benzoylphenylalanine at Ser5 (construct 25), holo-form; test: cross-linking
[2] = target: TycB1-His6, TycB1[COM^A-C-A-PCP] (construct 17), holo-form

Row | T-crosslink intensity relative to WT TycA [1] | L-crosslink intensity relative to WT TycA [1] | D-Phe-L-Pro-DKP production with TycB1, normalised to wild-type TycA [2] | Substance
1 | 46% | – | – | SBP-TycA P1063A, mutation in the lid (construct 24), holo-form (enzyme)
2 | 33% | – | – | SBP-TycA with the single V1059 in the seam region deleted (construct 23), holo-form (enzyme)
3 | 5% | 38% | 9% | SBP-TycA ΔV1059 to K1069, seam and lid deletion mutant (construct 19), holo-form (enzyme)
